Measured values published in patent publication US20250215403A1, “Compositions and Methods for Cardiac Tissue Regeneration” (Temple University - Of The Commonwealth System Of Higher …, priority 2022, published 2025).

Experiments:
[1] = tested on: NRVM (neonatal rat ventricular CMs); assay: NRVM transfection (modRNA, siRNA, PH755): CM cell cycle markers and CM number; type: cell-based
Procedure: (§1) In vivo transfection of modRNA was done as described previously in a recent method paper (Magadum A., et al., Circulation. 2020, 141 (15): 1249-1265; Sultana N., et al., Mol Ther, 2017, 25 (6): 1306-1315) using sucrose citrate buffer containing 10 μl of sucrose in nuclease-free water (0.3 g/ml), 10 μl of citrate (0.1M pH-7; Sigma) mixed with 10 μl of different concentrations of modRNA in saline to a total volume of 30 μl. Immediately after LAD ligation, mice received an intra-myocardial injection of modRNA (100 μg) in total volume of 30 μL at 3 different sites (mid-anterior×2 places and apical anterior) in the peri-infarct area (Magadum A., et al., Circulation. 2020, 141 (15): 1249-1265; Magadum, A., et al., 2021, Advanced Science, 9:2004661). For in vitro transfection, RNAiMAX transfection reagent (Life Technologies) was used according to manufacturer's recommendation (Magadum A., et al., Circulation. 2020, 141 (15): 1249-1265; Sultana N., et al., Mol Ther, 2017, 25 (6): 1306-1315).
Mice hearts were harvested, weighed, and fixed in 4% PFA/PBS overnight on shaker and then washed with PBS for 1 hour and incubated in 30% sucrose/PBS at 4° C. for 12-18 hours. Hearts were then fixed in OCT and frozen at −80° C. (Magadum A., et al., Circulation. 2020, 141 (15): 1249-1265). Transverse heart sections (6-8 μm) were made using a cryostat. Frozen sections were rehydrated in PBS for 5-10 min followed by permeabilization with PBS with 0.1% Triton™ X100 (PBST) for 7-8 min. Heart sections were then treated with 3% H2O2 for 5 min and washed (3×5 min) with PBST. The samples were then blocked with PBS+10% Donkey normal serum+0.1% Triton™ X100 (PBSST) for 1 hour at room temperature. Primary antibodies (see complete list of primary antibodies used for this Example in Table 2 below) diluted in PBST were added and incubated overnight at 4° C. Slides were washed with PBST (3×5 min) followed by incubation with a secondary antibody (Invitrogen, 1:200) diluted in PBST for 90-120 min at room temperature. The samples were further washed with PBST (3×5 min) and stained with DAPI or Hoechst 33342 (1 μg/ml) diluted in PBST for 7 min. […] For immunostaining with wheat germ agglutinin (WGA) for CM size quantification, images were captured at 40× magnification, and ImageJ was used to determine the area of each cell. Quantitative analyses involved counting of multiple fields from 5-8 mouse hearts per group, and 3-4 sections/heart (˜50 cells per field assessed, for a total ˜250 cells per sample). […] BrdU positive CMs were counted in multiple fields from three independent samples per group and 3 sections/heart. The total number of CMs counted was ˜1-1.5×10^3 CMs per section. […]

[2] = Mouse MI model: echocardiography of cardiac function 28 days post-MI; type: in vivo
Procedure: as §1
All surgical and experimental procedures with mice were performed in accordance with protocols approved by Institutional Animal Care and Use Committees at Temple University Animal Care and Use Committee (IACUC). C57BL6 or CM-specific MADM mice (8-12-weeks-old) were anesthetized with isoflurane. MI was induced by permanent ligation of the LAD, as previously described (Garikipati, V. N. S., et al., 2019, Nature Communications, 10:4317). Briefly, the left thoracic region was shaved and sterilized. After intubation, the heart was exposed through a left thoracotomy. A suture was placed to ligate the LAD. The thoracotomy and skin were sutured closed in layers. Excess air was removed from the thoracic cavity, and the mouse was removed from ventilation when normal breathing was established. In order to determine the effect of modRNA on cardiovascular outcome after MI, modRNAs (100 μg/heart) were injected into the infarct zone immediately after LAD ligation (Magadum A., et al., Circulation. 2020, 141 (15): 1249-1265). For examination of heart histology, hearts were collected at the end of each study, quickly washed in PBS, weighed, and fixed in 4% PFA for cryo-sectioning and immunostainings. In all experiments, the surgeon was blinded to the treatment group. For assessment of heart histology, hearts were collected at the end of each study. The hearts were excised, briefly washed in PBS, perfused with perfusion buffer, weighed and fixed in 4% PFA at 4° C. overnight. The heart blocks were transverse sectioned at 6-8 μm using cryostat. The heart sections were further processed for histological evaluation using immunostaining (see below) or histological scar staining using Masson's trichrome staining kit (Sigma) according to standard procedures. Measuring the ratio of heart weight to body weight was done using a scale. This ratio was calculated as the heart tissue weight relative to the mouse total body weight in grams (g).
Mice underwent surgery to ligate the left anterior descending coronary artery as reported previously, followed by intramyocardial administration of exosomes or EVs (1×10^9) from hiPSC cells and IMR-90 cells suspended in PBS into the left ventricular wall (border zone) at two different locations and at the heart apex at one location immediately after left anterior descending ligation (Yue, Y., et al., 2020, Circulation Research, 126:315-329). The saline group underwent the same surgery but received saline without exosomes. Tissue was harvested at 7- or 28-days post-MI for histological analysis.

NRVM = assay: TUNEL apoptosis of NRVMs under hypoxic conditions; type: cell-based, rat; settings: hypoxic conditions for 24 hours; agent alone

B1: PSAT1 modRNA: modified mRNA with N1-methylpseudouridine, transcribed in vitro, encoding phosphoserine aminotransferase 1 (ORF SEQ ID NO: 1, RNA SEQ ID NO: 2) (nucleic acid)
chain: AUGGAAGCCACCAAGCAAGUGGUUAACUUUGGGCCCGGGCCUGCCAAGCUGCCACACUCGGUAUUGUUGGAGAUCCAGAAGCAGCUACUAGACUACAGAGGACUCGGCAUCAGUGUGCUCGAAAUGAGUCACAGGUCAUCAGAUUUUGCCAAGAUUAUUGGCAAUACAGAGAAUCUUGUGAGGGAAUUGCUAGCUGUUCCCAACAACUACAAGGUGAUCUUUGUACAAGGAGGUGGGUCUGGCCAGUUCAGUGCUGUCCCCUUAAAUCUGAUUGGCCUGAAAGCUGGAAGGAGUGCUGACUACGUGGUGACCGGAGCUUGGUCAGCUAAGGCUGCGGAAGAAGCCAAGAAGUUUGGAACGGUGAACAUUGUCCACCCUAAACUUGGAAGUUACACAAAAAUUCCAGACCCAAGCACCUGGAACCUCAACCCGGACGCCUCCUAUGUAUACUUCUGUGCAAACGAGACUGUGCACGGGGUGGAGUUUGACUUCGUACCUGACGUCAAGGGAGCGGUGCUGGUCUGUGACAUGUCCUCAAACUUCUUAUCCAGGCCGGUGGAUGUUUCCAAGUUUGGUGUGAUUUUCGCUGGUGCUCAGAAGAAUGUUGGCUCUGCCGGGGUGACGGUGGUGAUUGUCCGGGAUGACCUGCUGGGGUUCUCGCUCAGAGAGUGCCCAUCAGUCCUUGACUACAAAGUGCAGGCUGGGAACAACUCUUUGUAUAACACACCUCCGUGCUUCAGCAUCUACGUCAUGGGCAUGGUCCUGGAAUGGAUCAAGAACAACGGCGGGGCCGCAGCCAUGGAGAAGCUCAGCUCCAUCAAAUCCCAAAUGAUUUAUGAGAUCAUUGAUAAUUCUCAAGGAUUUUAUGUAUGCCCAGUGGAGCGCCAGAAUAGAAGCAGGAUGAACAUCCCAUUUCGCAUUGGCAACGCCAAAGGAGACGAAGCUUUGGAAAAGCGGUUUCUUGACAAGGCGGUAGAACUCAACAUGAUCUCCUUGAAGGGGCACAGGUCAGUGGGAGGCAUUCGUGCCUCUCUGUAUAACGCUGUCACAACCGAAGACGUUGAGAAGCUGGCGGCCUUCAUGAAGAAUUUCUUGGAGAUGCAUCAGCUGUGA
modifications: N1-methylpseudouridine
[1]; NRVM, after 3 days, vs Luc modRNA
  CM mitosis (pH3+): significantly induced
[1]; NRVM, in 5 days, vs Luc modRNA
  CM number: increased
[1]; NRVM, PSAT1 modRNA plus PH755 10 μM, compared to control, significantly lower rate than PSAT1 modRNA alone
  CM cell cycle restriction under SSP inhibition: partially reversed
[1]; post-PSAT1 modRNA expression
  dedifferentiation of CMs: Increased
[2]
  LV end-diastolic posterior wall thickness: significantly increased
  LV end-systolic posterior wall thickness: significantly increased
[2]; compared to Luc
  Fractional Shortening (% FS): significantly improved
[2]; compared to control
  LVIDd (left ventricular internal diameter end-diastole): Improvements
  LVIDs (left ventricular internal diameter end-systole): Improvements
[2]; myocardial delivery, compared to Luc
  Ejection Fraction (% EF): significantly improved
NRVM
  NRVM / CM apoptosis (TUNEL+ CMs): significantly inhibited
